# In patent US20130129701, “Methods and Compositions for Sequence Specific RNA Endonucleases” (published 2013):
# T1: PUF-R6(SYxxR) purified (Homo sapiens, UniProt Q14671 Q14671:828-1176, N1043S/Q1047R)
# T1 sequence: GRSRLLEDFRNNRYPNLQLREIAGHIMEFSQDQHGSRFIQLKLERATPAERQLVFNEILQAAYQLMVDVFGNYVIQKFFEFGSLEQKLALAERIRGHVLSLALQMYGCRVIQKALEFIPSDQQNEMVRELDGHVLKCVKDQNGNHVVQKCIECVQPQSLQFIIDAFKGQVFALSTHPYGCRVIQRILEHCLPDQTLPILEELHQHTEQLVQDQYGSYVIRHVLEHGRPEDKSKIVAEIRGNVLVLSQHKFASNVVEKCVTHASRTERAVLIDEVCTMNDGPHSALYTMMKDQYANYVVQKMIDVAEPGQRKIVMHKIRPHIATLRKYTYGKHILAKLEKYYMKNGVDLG
# B1: C3 RNA (ssRNA)
# RNA: UGCAUAUA
# B2: C3 RNA crystallization 10-mer (ssRNA)
# RNA: AUUGCAUAUA
# What was measured:
# [1] = target: T1, PUF-R6(SYxxR) purified; assay: EMSA; 0.2 uM protein, 1 nM biotinylated RNA, 1 mM MgCl2, room temperature
# Method: Protein concentration was determined by Bradford assay. RNAs were generated by in vitro transcription and purified on denaturing gels. 50 pmol of RNAs were labeled at the 3′ end with biotinylated cytidine bisphosphate using T4 RNA ligase following manufacturer's directions (Thermo Scientific Pierce RNA 3′ End Biotinylation Kit). In each sample, 20 fmol of labeled RNA (1 nM) and 4 pmol of proteins (0.2 μM) were incubated in binding buffer (10 mM HEPES, pH 7.3, 20 mM KCl, 1 mM MgCl₂, 1 mM DTT, and 0.1 g/L tRNA) for 1 hour at room temperature. The binding reactions were separated by electrophoresis on 6% nondenaturing PAGE run with 1×TBE at 4° C., transferred to nylon membranes, and crosslinked to the membrane by UV. Biotin-labeled RNA was detected by chemiluminescence using the Thermo Scientific LightShift Chemiluminescent RNA EMSA Kit following manufacturer's directions.
# [2] = target: T1, PUF-R6(SYxxR) purified; assay: structure; PDB 2yjy
# Method: Crystals of PUF-R6(SYxxR) mutant and C3 RNA (5′-[…]) were grown by sitting drop vapor diffusion. RNA oligonucleotide was obtained from Dharmacon (Lafayette, Colo.). The protein-RNA complex was prepared by mixing a 1:1.1 molar ratio of purified protein (3.5 mg/ml) and RNA in a buffer containing 20 mM Tris-HCl, pH 7.5; 100 mM NaCl; and 1 mM DTT. One μl of complex solution was added to 1 μl of a well solution containing 30% PEG 3350, 0.2M ammonium tartrate dibasic, and 0.1M bis-Tris, pH 5.5. Crystals were flash frozen after adding an equal volume of cryoprotectant solution (32% PEG 3350, 20% ethylene glycol) to the drop. Diffraction data were collected at the SER-CAT beamline ID-22, Advanced Photon Source at wavelength 1.0 Å and −180° C. All data sets were indexed, integrated, and scaled with the HKL2000 suite (21). The structure was determined by molecular replacement using the structure of human Pumilio1 (PDB ID: 1M8Y) as a search model with PHASER (22). Two complexes are present in the asymmetric unit. Iterative model building was performed with COOT (23), and the resulting models were refined with PHENIX (24). All Phi-Psi angles are within allowable regions of the Ramachandran plot. The atomic coordinates and structure factors have been deposited in the Protein Data Bank (PDB ID: 2yjy).
Binder,binding result [1],binding result [2]
B1,binds,–
B2,–,binds
